Earlier results on one sequence are cited in paper PMC8910571.

In this data set the target is T1, PTK7 (tyrosine kinase 7 protein) (UniProt Q13308).
T1 sequence: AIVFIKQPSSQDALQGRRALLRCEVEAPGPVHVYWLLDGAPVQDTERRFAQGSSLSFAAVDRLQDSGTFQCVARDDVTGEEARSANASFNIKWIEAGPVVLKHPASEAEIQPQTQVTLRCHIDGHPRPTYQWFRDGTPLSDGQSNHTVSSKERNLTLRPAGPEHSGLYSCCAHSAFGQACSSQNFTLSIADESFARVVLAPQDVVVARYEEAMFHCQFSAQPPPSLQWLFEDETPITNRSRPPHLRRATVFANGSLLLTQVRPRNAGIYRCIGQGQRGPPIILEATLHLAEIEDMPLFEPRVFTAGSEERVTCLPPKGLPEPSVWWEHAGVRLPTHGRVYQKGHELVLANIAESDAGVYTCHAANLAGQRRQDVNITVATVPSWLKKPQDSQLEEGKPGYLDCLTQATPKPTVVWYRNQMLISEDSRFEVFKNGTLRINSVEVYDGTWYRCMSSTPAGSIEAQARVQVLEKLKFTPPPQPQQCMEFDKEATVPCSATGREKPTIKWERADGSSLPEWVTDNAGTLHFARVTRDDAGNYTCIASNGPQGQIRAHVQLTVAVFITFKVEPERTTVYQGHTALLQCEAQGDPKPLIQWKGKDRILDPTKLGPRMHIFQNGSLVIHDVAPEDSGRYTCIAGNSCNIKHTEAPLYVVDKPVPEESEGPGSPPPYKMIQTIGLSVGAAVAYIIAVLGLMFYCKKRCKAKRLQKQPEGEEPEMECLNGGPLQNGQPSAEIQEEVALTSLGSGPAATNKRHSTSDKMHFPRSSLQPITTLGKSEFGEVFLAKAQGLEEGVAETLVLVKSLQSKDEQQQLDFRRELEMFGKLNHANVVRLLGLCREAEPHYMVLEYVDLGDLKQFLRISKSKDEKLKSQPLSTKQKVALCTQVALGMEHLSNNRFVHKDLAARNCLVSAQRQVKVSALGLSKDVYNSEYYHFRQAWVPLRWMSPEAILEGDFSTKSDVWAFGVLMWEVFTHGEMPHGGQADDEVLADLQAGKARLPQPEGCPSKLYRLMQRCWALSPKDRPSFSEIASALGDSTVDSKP

With “ATCTAACTGCTGCGCCGCCGGGAAAATACTGTACGGTTAGA [Sgc8-c]”, the Kd was 0.78 nM.
